This assay addresses human serum protein. Nature of the assay: human serum (1:800) adsorbed to TM2 variant-immobilized magnetic beads, HRP-labeled anti-human IgG detection.

Consider TM2 D40NR104E, for which the Non-specific binding to serum protein (A450) was found to be 0.56 A450.

These data come from patent publication US20110263824A1.
